According to paper PMC8565784:

Columns and labels:
[1] = pQC-Fluc PV neutralisation; details: glycan gained; control: Q23 SOS gp160ΔCT parent
[2] = SDS-PAGE-Western blot of VLP Env; details: glycan gained; control: Q23 SOS gp160ΔCT parent

Substance | other: neutralisation sensitivity [1] | expression_or_secretion [2]
Q23 Env: D49N | increases | increases
Q23 Env: D49N+D674N | increases | no change
Q23 Env: D674N | increases | decreases
